Reference: publication PMC11618376 (Nature Communications, 2024)

Biological target: T1, Gdi1 (yeast, UniProt P39958 1-451)
T1 sequence (looked up): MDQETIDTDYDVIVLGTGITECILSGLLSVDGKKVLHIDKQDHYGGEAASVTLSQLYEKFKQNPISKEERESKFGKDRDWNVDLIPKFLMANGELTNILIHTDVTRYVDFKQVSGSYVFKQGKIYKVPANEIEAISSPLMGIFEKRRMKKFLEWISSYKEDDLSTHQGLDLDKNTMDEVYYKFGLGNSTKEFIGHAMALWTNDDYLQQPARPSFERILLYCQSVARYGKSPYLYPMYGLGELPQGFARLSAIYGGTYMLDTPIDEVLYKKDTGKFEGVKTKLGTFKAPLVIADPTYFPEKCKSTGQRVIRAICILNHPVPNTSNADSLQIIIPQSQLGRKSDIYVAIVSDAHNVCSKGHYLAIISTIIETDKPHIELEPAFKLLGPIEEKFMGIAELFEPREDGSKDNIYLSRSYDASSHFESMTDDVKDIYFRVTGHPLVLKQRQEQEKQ
Experiment: SEC

B1: prenylated Rab6-mantGDP (natural protein, S. cerevisiae, UniProt Q99260 1-215, looked up)
chain: MSRSGKSLTKYKIVFLGEQGVGKTSLITRFMYDTFDDHYQATIGIDFLSKTMYLDDKTIRLQLWDTAGQERFRSLIPSYIRDSRVAIIVYDITKRKSFEYIDKWIEDVKNERGDENVILCIVGNKSDLSDERQISTEEGEKKAKLLGAKIFMETSTKAGYNVKALFKKIAKSLPEFQNSESTPLDSENANSANQNKPGVIDISTAEEQEQSACQC
modifications: C-terminal cysteines prenylated (geranylgeranyl)
- binding result: binds
